Data reported in patent US20220160842A1, “METHOD OF TREATING INFECTIVE ENDOCARDITIS” (priority 2019, published 2022).

Columns and labels:
[1] = test system: S. aureus (MRSA); test: MIC by broth microdilution; type: cell-based, Staphylococcus aureus; conditions: S. aureus (MRSA), N=74
Method: (§1) Minimal inhibitory concentrations (MICs) of exebacase against staphylococci were determined by broth microdilution (BMD) using a nonstandard antimicrobial susceptibility testing (AST) medium comprised of cation-adjusted Mueller Hinton broth (caMHB) supplemented with horse serum (Sigma Aldrich) and dithiothreitol (DTT; Sigma Aldrich) to final concentrations of 25% and 0.5 mM, respectively. This medium, referred to as caMHB-HSD, is approved for use in exebacase AST by the Clinical and Laboratory Standards Institute (CLSI) (CLSI. 2017, Jan. 16-17. AST Subcommittee Working Group Meetings and Plenary. AST Meeting Files & Resources, clsi.org/education/microbiology/ast/ast-meeting-files-resources/. Additional supplementation with 2.5% lysed red blood cells (Remel™, ThermoFisher) was included for analyses of streptococcal isolates, as recommended by CLSI. See CLSI, 2015. Methods for Dilution Antimicrobial Susceptibility Tests for Bacteria That Grow Aerobically, 10th Edition. Clinical and Laboratory Standards Institute, Wayne, Pa.
(§2) Daptomycin (Sigma Aldrich) and vancomycin hydrochloride (Sigma Aldrich) were tested following the reference BMD method for each. See CLSI. 2015. Methods for Dilution Antimicrobial Susceptibility Tests for Bacteria That Grow Aerobically, 10th Edition. Clinical and Laboratory Standards Institute, Wayne, Pa.

[2] = test system: S. aureus (MSSA); test: MIC by broth microdilution; type: cell-based, Staphylococcus aureus; conditions: S. aureus (MSSA), N=73
Method: as §1, §2

[3] = test system: S. lugdunensis; test: MIC by broth microdilution; type: cell-based, Staphylococcus lugdunensis; conditions: S. lugdunensis, N=49
Method: as §1, §2

[4] = test system: S. haemolyticus; test: MIC by broth microdilution; type: cell-based, Staphylococcus haemolyticus; conditions: S. haemolyticus, N=36
Method: as §1, §2

[5] = test system: S. capitis; test: MIC by broth microdilution; type: cell-based, Staphylococcus capitis; conditions: S. capitis, N=13
Method: as §1, §2

[6] = test system: S. warneri; test: MIC by broth microdilution; type: cell-based, Staphylococcus warneri; conditions: S. warneri, N=23
Method: as §1, §2

[7] = test system: S. anginosus; test: MIC by broth microdilution; type: cell-based, Streptococcus anginosus; conditions: S. anginosus (viridans), N=10
Method: as §1, §2

[8] = test system: S. gordonii; test: MIC by broth microdilution; type: cell-based, Streptococcus gordonii; conditions: S. gordonii (viridans), N=11
Method: as §1, §2

[9] = test system: S. mutans; test: MIC by broth microdilution; type: cell-based, Streptococcus mutans; conditions: S. mutans (viridans), N=22
Method: as §1, §2

[10] = test system: S. oralis; test: MIC by broth microdilution; type: cell-based, Streptococcus oralis; conditions: S. oralis (viridans), N=15
Method: as §1, §2

[11] = test system: S. salivarius; test: MIC by broth microdilution; type: cell-based, Streptococcus salivarius; conditions: S. salivarius (viridans), N=12
Method: as §1, §2

[12] = test system: S. gallolyticus; test: MIC by broth microdilution; type: cell-based, Streptococcus gallolyticus; conditions: S. gallolyticus (bovis), N=19
Method: as §1, §2

[13] = test system: S. pyogenes; test: MIC by broth microdilution; type: cell-based, Streptococcus pyogenes; conditions: S. pyogenes (group A), N=100
Method: as §1, §2

[14] = test system: S. pneumoniae; test: MIC by broth microdilution; type: cell-based, Streptococcus pneumoniae; conditions: S. pneumoniae, N=59
Method: as §1, §2

[15] = test system: E. faecalis; test: MIC by broth microdilution; type: cell-based, Enterococcus faecalis; conditions: E. faecalis (formerly group D), N=18
Method: as §1, §2

[16] = test system: MRSA strain MW2; test: Left-sided catheter-induced IE model due to MRSA, CF-301 dose strategies plus DAP (Example 4); type: in vivo, rabbits; conditions: all CF-301 doses given in addition to DAP
Method: Briefly, female New Zealand White rabbits (Harlan Laboratories; 2.3 to 2.5 kg body weight) underwent transcarotid-transaortic valve catheterization, and IE was induced by IV infection of ˜1-2×10^5 cfu of MW2 at 48 hours (h) after catheterization. […] See also FIG. 4.
On day 5, animals were sacrificed, and target tissues (cardiac vegetations, kidney and spleen) were removed and quantitatively cultured. Tissue MRSA counts are given as the mean log10 CFU/g of tissue±SD).
A two-tailed Student's t test was used to analyze the tissue MRSA counts between different groups. P values <0.05 were considered significant. No adjustment was made for all the P values reported in this study.

B1: CF-301: anti-staphylococcal lysin encoded within a prophage of the Streptococcus suis genome, SEQ ID NO: 2 with or without initial methionine (protein, listed as Streptococcus suis)
chain: MTTVNEALNNVRAQVGSGVSVGNGECYALASWYERMISPDATVGLGAGVGWVSGAIGDTISAKNIGSSYNWQANGWTVSTSGPFKAGQIVTLGATPGNPYGHVVIVEAVDGDRLTILEQNYGGKRYPVRNYYSAASYRQQVVHYITPPGTVAQSAPNLAGSRSYRETGTMTVTVDALNVRRAPNTSGEIVAVYKRGESFDYDTVIIDVNGYVWVSYIGGSGKRNYVATGATKDGKRFGNAWGTFK
MIC50 [1]: 0.5 µg/mL
MIC90 [1]: 1 µg/mL
MIC Range [1]: 0.5 to 2 µg/mL
MIC50 [2]: 0.5 µg/mL
MIC90 [2]: 0.5 µg/mL
MIC Range [2]: 0.25 to 1 µg/mL
MIC50 [3]: 1 µg/mL
MIC90 [3]: 1 µg/mL
MIC Range [3]: 0.25 to 2 µg/mL
MIC50 [4]: 0.5 µg/mL
MIC90 [4]: 1 µg/mL
MIC Range [4]: 0.25 to 2 µg/mL
MIC50 [5]: 1 µg/mL
MIC90 [5]: 2 µg/mL
MIC Range [5]: 0.25 to 4 µg/mL
MIC50 [6]: 0.5 µg/mL
MIC90 [6]: 1 µg/mL
MIC Range [6]: 0.06 to 1 µg/mL
MIC50 [7]: 32 µg/mL
MIC90 [7]: 64 µg/mL
MIC Range [7]: 1 to 64 µg/mL
MIC50 [8]: 4 µg/mL
MIC90 [8]: 8 µg/mL
MIC Range [8]: 0.5 to 8 µg/mL
MIC50 [9]: 32 µg/mL
MIC90 [9]: 64 µg/mL
MIC50 [10]: 4 µg/mL
MIC90 [10]: 64 µg/mL
MIC Range [10]: 0.5 to 64 µg/mL
MIC50 [11]: 2 µg/mL
MIC90 [11]: 8 µg/mL
MIC Range [11]: 0.5 to 8 µg/mL
MIC50 [12]: 64 µg/mL
MIC90 [12]: >512 µg/mL
MIC50 [13]: 1 µg/mL
MIC90 [13]: 2 µg/mL
MIC Range [13]: 0.5 to 4 µg/mL
MIC50 [14]: 4 µg/mL
MIC90 [14]: 32 µg/mL
MIC Range [14]: 1 to 64 µg/mL
MIC50 [15]: 16 µg/mL
MIC90 [15]: 64 µg/mL
MIC Range [15]: 1 to 256 µg/mL
further reduction of MRSA densities in all target tissues vs DAP alone [16]: about 3 log10 cfu/g
reduction of MRSA densities in all target tissues vs vehicle control groups [16]: about 6 log10 cfu/g
